{"source": "patent US20240123029A1", "about": "(HUMANITAS MIRASOLE S P A, published 2024)", "molecular_target": "T1, SARS-CoV-2 S1 protein, His Tag (SARS-CoV-2, UniProt P0DTC2 16-685)", "T1 construct": "domain: S1; Bought", "experiment": "ELISA, His-tagged viral protein captured on nickel plates (6.25-50 pmol/mL)", "data": [{"binder": "Purified C-reactive protein (CRP) (other) QTDMSRKAFVFPKESDTSYVSLKAPLTKPLKAFTVCLHFYTELSSTRGYSIFSYATKRQDNEILIFWSKDIGYSFTVGGSEILFEVPEVTVAPVHICTSWESASGIVEFWVDGKPRVRKSLKKGYTVGAEASIILGQEQDSFGGNFEGSQSLVGDIGNVNMWDFVLSPDEINTIYLGGPFSPNVLNWRALKYEVQGEVFTKPQLWP", "values": [{"measurement": "binding result", "value": "no binding (tested: CRP 3 µg/mL)"}]}]}
